Drawing on the supplement of paper PMC12042874, this text covers amyloid nucleation score for 131 substances.

The data set is described as follows: amyloid nucleation score (Sup35N fusion, yeast selection) (log enrichment); library NNK3; higher = more nucleation; inactive = no reads after selection. The essentials:
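For the nucleation score, DiMSum gave the log enrichment of output over input reads, centred on the mode score of non-aggregating sequences. Psi-negative yeast expressing Sup35N fused to peptides of 20 random codons were induced with 100 μM copper sulfate for 24 hours and grown 7 days at 30°C on medium lacking adenine and uracil. Input and output plasmid inserts were Illumina-sequenced, and sequences with under 100 input reads were excluded.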

± gives the uncertainty stated by the source.

Regarding RRELWRLRTVVCTMNLLYYA, the amyloid nucleation score entry is “inactive”. As for SDQVGFQIEVFCVKS, the entry is “inactive”; as for QLGLIVRNSCLSSIVVKGML, -0.06 ± 0.54. Regarding MIVNNELCTNLPYLSGAVNR, the amyloid nucleation score result was “inactive”. For TPLGLEWYSSREWGISNLWT, the amyloid nucleation score result is “inactive”. With EHVRVYFVLDYFDFCQAPAG the entry was “inactive”; with CSTCISTNFSPY, “inactive”; with YINLVFQNCAVDGRSSKGYW, 2.67 ± 0.081. As for YFGSV, the entry is “inactive”; as for VYECFSSWTWSWVCQCQAVF, “inactive”; as for HWNCGVTNSGEFFALAVGFI, “inactive”.

Turning to STRILRLHITSMLDFRTTGA, the amyloid nucleation score result is “inactive”.

As to RLRCLYTSEISVGIGNNWVS, the amyloid nucleation score entry is “inactive”. As for LVDLGFMRRCSQSRLQDFCF, the figure is 0.832 ± 0.24; as for GLMRDCTTAMIGENDAFWSD, “inactive”; as for PSRIGSDFSRFLSEECGQLR, “inactive”.

As to LYYSWKKEYQFIWVVHTFAK, the amyloid nucleation score entry is “inactive”. Take FGQYSGVSCNWTPGCPAPCF: the amyloid nucleation score result is “inactive”. In the case of WLQISIEKTTKFPSKMNH, the amyloid nucleation score came out at 1.58 ± 0.11. With LLRRNINMFSIQFFSRVTWL the figure was -0.141 ± 0.96; with KFCLWYSGTNELDLCEPSMT, “inactive”; with VIRRYCAGARHYSVLEIMRE, “inactive”. As for WRFGRVFDWGRLHLGVDRCR, the amyloid nucleation score result was “inactive”. Turning to SSDSVNLIRYLYVRPRFPIH, the amyloid nucleation score entry was “inactive”. With PSYNCFTKFVADQTVTLRFS the entry was “inactive”. Take PCRTDICR: the amyloid nucleation score entry was “inactive”. FSFRTMYVFDPLYNKYRIFM gave an amyloid nucleation score of 0.125 ± 0.6. With VVVCNRIVNSSEFRCSYTRK the figure was 1.73 ± 0.09; with RDFAR, “inactive”; with FVPCVWLGSGNCLCTDTMLW, 1.63 ± 0.11. Take GSYSRTLTYPHGENHENRKV: the amyloid nucleation score entry is “inactive”.

On to RGAPVFCFYKWFSTATCSIA, for which the amyloid nucleation score entry was “inactive”. Substance HLSSNVLNYVLNFHWFCNFG displayed an amyloid nucleation score of 0.836 ± 0.16. As for SQDGYDLHRSFRLLEVGSEL, the entry is “inactive”; as for AWRRSSEGYRFGNDYVTRAT, “inactive”; as for SPWYVVFMCNLIFYKGEFTR, “inactive”. As for NSGHLVLGCMYIFSNGFVDR, the amyloid nucleation score came out at 1.22 ± 0.14.

Consider VVLNWNTNGY, for which the amyloid nucleation score amounted to 0.669 ± 0.15. With LRLVTMSYWPRYLLRRKCIR the entry was “inactive”; with NGWNVMYLFMCRVNSARSIL, 1.77 ± 0.081. As for FNDNVFIGRYVRTSYCLNLR, the figure is 1.72 ± 0.064.

Regarding LLSAMYNHPADMIAKLGKGG, the amyloid nucleation score result was “inactive”.

Regarding CIYCIVA, the amyloid nucleation score came to 2.64 ± 0.087.

In the case of CDAHSLSMLRVQIK, the amyloid nucleation score result is “inactive”. For REVGDQMIDLSRSYVQSTVG, the amyloid nucleation score result was “inactive”. For the substance AYSDFRLTLSSYIVRANETC, the amyloid nucleation score entry was “inactive”. As for EAHGYVR, the entry is “inactive”; as for RRGYLVYFGSTFYYSSNSFW, 0.468 ± 0.19. With SYNFVNQYVWKEDRNTKVAI the entry was “inactive”; with PGITNLWLEMSHV, “inactive”. As for DNSVALIDYSWAVTRI, the entry is “inactive”; as for SFMRCFNIVWYTSILLRYTW, “inactive”. As to RFIVS, the amyloid nucleation score entry is “inactive”. Consider IRFQSYRLASSSLVCDCVFC, for which the amyloid nucleation score turned out to be 0.627 ± 0.31. For IRSERTLDSATWDPFVVLKD, the amyloid nucleation score result is “inactive”.

Regarding RFILDVMRVAAGFMVSK, the amyloid nucleation score entry is “inactive”. With GPHNFGEMSGFVDGTRRSGV the entry was “inactive”; with LFLKFDNSSWLMLKVMDTNI, 0.961 ± 0.19; with WIMPLDQ, “inactive”. With SAWHIRVERIGVMYRVHCYD the figure was 0.747 ± 0.18; with FLVLVGIGIGMYLFVNHYVD, 1.64 ± 0.088; with MSFRIAKDIMCLVGFSLRCT, “inactive”.

Regarding CKRLPIACLTSLTKAR, the amyloid nucleation score entry is “inactive”. As for QISFGLLINLSVIFSGLDLV, the figure is 0.801 ± 0.27. As for MFQFVFSVQMSGSAFRMFMK, the entry is “inactive”; as for NILGLKCPSYYPQHVSCGYY, “inactive”. With HFGQCSVMMCDAWGMSDQGP the entry was “inactive”; with TIGDACFVGKEAWAFANWEY, “inactive”; with EIQVV, “inactive”. IVVVFNPFGDELTYWVTQSM: the amyloid nucleation score entry was “inactive”. As for VWRSNF, the entry is “inactive”; as for GMRFRLMEKFHRLFYYSNMT, “inactive”; as for KTWVSIVSGLKADSGGGLHA, “inactive”.

As for NGFCCM, the amyloid nucleation score entry is “inactive”.

Substance MTGCHCSSVAR registered an amyloid nucleation score of -0.299 ± 0.68. As to NEICEHTSVVLLR, the amyloid nucleation score entry is “inactive”. In turn, CIYGKVFF returned an amyloid nucleation score of 0.309 ± 0.28. With FVTAAN the entry was “inactive”; with GFVMMFNR, “inactive”. As for KLMVNNQFISISINMSRCLF, the amyloid nucleation score stood at 1.63 ± 0.098. With EAPRFCSRAMDYVILQGWTL the entry was “inactive”; with YMAVKRSWSNSMTMIHLNSV, “inactive”; with CNNMYRERNNFWILMEWSLL, “inactive”. With IGIDMMMESKLYSCCNLDMY the figure was 1.38 ± 0.078; with NCNTVKYGMFGAWSNSAV, 0.313 ± 0.18. With IMTVSLGGRNSDSDNLSCLD the entry was “inactive”. On to KWYIMCLVNILVEVIIFNYF, for which the amyloid nucleation score entry is “inactive”. Regarding LKSSPFNYSVGIS, the amyloid nucleation score entry is “inactive”. Consider NVVCNDPPPGVYEDLGWTGI, for which the amyloid nucleation score result is “inactive”. With KINGIDSSGMCAISLIKKGA the entry was “inactive”; with MRRYIRNIKAHMCVIVRVYL, “inactive”.

Take PFKFFW: the amyloid nucleation score result was “inactive”. For the substance QGYMFFCHYIDICS, the amyloid nucleation score entry is “inactive”.

Consider TKAYGCIHTDRRDSQLKFSA, for which the amyloid nucleation score result is “inactive”. On to KVARIVPRFKRQDYTALILD, for which the amyloid nucleation score result is “inactive”.

In the case of ILVIYCRVMKCFKCTRMRLC, the amyloid nucleation score result was “inactive”. As for NNVVVL, the entry is “inactive”; as for GCLYVW, “inactive”; as for LQSGDRIVTDSYVRAYTMHV, “inactive”. As for NKVFMEDQGLKVHWV, the amyloid nucleation score result was “inactive”. For the substance LGPAVELGMT, the amyloid nucleation score result is “inactive”.

In the case of YVYSVFFYRWW, the amyloid nucleation score result was “inactive”. As for FLFYLFFFSGRMDR, the figure is 0.179 ± 0.33; as for IFINRKE, -0.431 ± 0.76.

In turn, FIWQMGNNPVVVAFSCRAGW returned an amyloid nucleation score of 2.56 ± 0.076. With FCMRMDRLQLRIADSLLRFF the entry was “inactive”. With RLWICVSQILVILVDALILG the entry was “inactive”; with DVGLAVNTSHLWSYT, “inactive”. With TCLVSNYVAYIWGNEFFAAS the figure was 2.19 ± 0.053; with ETECVFSDYHSKVNICGGSL, “inactive”; with LLFENIQK, “inactive”. Consider FLIYAQALLF, for which the amyloid nucleation score result was “inactive”. Turning to HHLSTRINCIDRVRSPNLRL, the amyloid nucleation score was -0.708 ± 1.4. As for TIATLRF, the entry is “inactive”; as for GSATSFAFFIVFLSD, 1.51 ± 0.096. As for SCRLLNFIICIGWVWGFDVS, the entry is “inactive”. In the case of YIGFGGDCSVSAFVTCQLGF, the amyloid nucleation score result was “inactive”. Take MRWMGDGMRSTNSSVNSHGL: the amyloid nucleation score entry was “inactive”. With TFYDNLSDRLFSWS the entry was “inactive”; with LTGCRL, “inactive”; with YWNFYSSNLYWT, “inactive”.

On to SGLSSRNSYTFVSKRVVGVR, for which the amyloid nucleation score entry was “inactive”. As for SQITRMTPPVSIAADSRFVE, the entry is “inactive”. As for YSMDTPCFINSGVFSADPNL, the entry is “inactive”. Take SSFLFVKLLIMNRLVQKIYA: the amyloid nucleation score entry was “inactive”. Turning to VIVASVVLKW, the amyloid nucleation score entry is “inactive”. As for TCLVGHDKKIDFIV, the entry is “inactive”; as for VLVCYC, “inactive”. Consider LIPQRDNMGGGFRTFSLCYV, for which the amyloid nucleation score result is “inactive”. As for ICDFCQQCSVNERKTLNYSA, the entry is “inactive”; as for NNTNAQKLLINV, “inactive”.
